Assay results as given in patent US5980890A, “Purification and characterization of alkaline phosphates from Thermotoga neapolitana” (Michigan State University, priority 1997, dated 1999).
Where a name gives a salt, the structure may show the parent alone.

T1: Thermotoga neapolitana (DSM 5068) alkaline phosphatase, purified native enzyme (Thermotoga neapolitana, UniProt B9K6X5)
T1 sequence (B9K6X5 23-436): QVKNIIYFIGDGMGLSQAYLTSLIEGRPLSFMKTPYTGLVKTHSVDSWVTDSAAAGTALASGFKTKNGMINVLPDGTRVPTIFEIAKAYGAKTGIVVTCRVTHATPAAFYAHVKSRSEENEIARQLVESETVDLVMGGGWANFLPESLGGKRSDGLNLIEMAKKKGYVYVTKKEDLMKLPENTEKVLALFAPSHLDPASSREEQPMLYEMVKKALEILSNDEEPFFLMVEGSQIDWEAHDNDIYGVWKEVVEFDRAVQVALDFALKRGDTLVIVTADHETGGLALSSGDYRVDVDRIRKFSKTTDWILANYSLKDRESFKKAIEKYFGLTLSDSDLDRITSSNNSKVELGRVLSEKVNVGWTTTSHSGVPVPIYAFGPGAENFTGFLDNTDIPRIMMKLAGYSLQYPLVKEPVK

B1: Thermotoga neapolitana (DSM 5068) alkaline phosphatase, purified native enzyme (Thermotoga neapolitana DSM 4359) (protein)
chain: QVKNIIYFIGDGMGLSQAYLTSLIEGRPLSFMKTPYTGLVKTHSVDSWVTDSAAAGTALASGFKTKNGMINVLPDGTRVPTIFEIAKAYGAKTGIVVTCRVTHATPAAFYAHVKSRSEENEIARQLVESETVDLVMGGGWANFLPESLGGKRSDGLNLIEMAKKKGYVYVTKKEDLMKLPENTEKVLALFAPSHLDPASSREEQPMLYEMVKKALEILSNDEEPFFLMVEGSQIDWEAHDNDIYGVWKEVVEFDRAVQVALDFALKRGDTLVIVTADHETGGLALSSGDYRVDVDRIRKFSKTTDWILANYSLKDRESFKKAIEKYFGLTLSDSDLDRITSSNNSKVELGRVLSEKVNVGWTTTSHSGVPVPIYAFGPGAENFTGFLDNTDIPRIMMKLAGYSLQYPLVKEPVK

Key:
[1] = biological target: T1, Thermotoga neapolitana (DSM 5068) alkaline phosphatase, purified native enzyme; assay: biochemical; conditions: 1 h, read-out: original activity detected after exhaustive treatment with EDTA
Protocol: The initial linear change in the absorbance at 410 nm was detected by recording spectrophotometer (Cary 219, U.S.A.), thermostated at 60° C. One enzyme activity unit represents the hydrolysis of 1 μl mole of substrate per min under these standard assay condition.
The purified alkaline phosphatase in Buffer A was incubated at room temperature for 1 h in the presence of EDTA at 0.0-5.0 mM concentration respectively. The residual enzyme activity was assayed under standard conditions.
For metal ion treatment, 10 mM EDTA was added into a tube containing the purified alkaline phosphatase in Buffer A. After 1 h, the mixture was dialyzed against Buffer A containing 2 mM EDTA and then three times against Buffer A without EDTA. Subsequently, 2 mM of different metal ions were added to the deionized enzyme solutions, and the mixtures were incubated for 1 h at room temperature. For a comparison, 2 mM of various metal ions were added directly to purified protein and incubated under the same conditions. All the metal ions used were in chloride form. The enzyme activity was assayed under standard conditions.

[2] = substrate: O=[N+]([O-])c1ccc(OP(=O)(O)O)cc1; assay: purified protein, by the assay type; conditions: other: p-nitrophenyl phosphate as substrate, optimal temperature and pH conditions (85° C., pH 9.9)

Molecule	activity at 10000 µM [1] [%]	Km [2] [µM]	Vmax [2] [U/mg]
O=C(O)CN(CCN(CC(=O)O)CC(=O)O)CC(=O)O [EDTA, Ethylenediamine tetraacetic acid disodium salt]	~5		
B1		183	1352
